Experimental data taken from the supplement of paper PMC10567573.

B1: KRT71 (parent)
chain: FGSRSLYSLGGVRSLNVASGSGKS
B2: CDC25B (parent)
chain: ELKTFRLKTRSWAGERSRRELCSR

Variants of: B1
Test: protein stability index of a GFP-peptide fusion (GPS, HEK-293T) (PSI 1-6); higher = more stable
Conditions: c terminus: a fixed tail appended
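Further: lentivirally expressed fusions sorted by FACS into six bins by GFP to DsRed ratio, PSI derived from sequencing read proportions per bin multiplied by bin number.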

Protein stability index of substitutions, site by site:
G11: Q 3.2 | C 2.87 | L 2.9 | P 1.8 | H 2.33 | R 2.46 | E 2.92 | I 5.35 | N 2.24 | D 2.25 | M 2.71 | W 2.62 | K 1.64 | V 4.85 | T 2.4 | S 2.11 | Y 3.77
K23: Q 1.77 | L 1.74 | H 2.03 | D 1.92 | F 2.47 | I 2.12 | T 1.56 | E 2.03 | S 1.9 | V 1.88 | R 2.35 | P 2.15 | W 2.56 | C 1.97 | A 1.47 | N 2.09 | Y 1.69 | G 2.09 | M 1.49
G20: W 1.82 | L 1.55 | N 1.82 | Y 1.87 | D 2.18 | H 1.67 | M 1.49 | A 1.96 | R 1.97 | K 1.5 | F 2.04 | S 1.87 | T 2.16 | Q 1.87 | E 1.49 | C 1.54 | I 1.72 | V 1.92 | P 2
V12: S 2.45 | E 2.3 | F 1.66 | P 2.2 | N 2.28 | K 2 | G 2.13 | D 2.05 | L 2.21 | R 2.37 | T 2.27 | Q 2.11 | Y 1.65 | W 1.71 | H 1.68 | M 1.68 | C 1.55 | I 2.12 | A 1.81
S14: M 1.65 | H 2 | W 1.44 | K 1.81 | Y 2.36 | N 2.38 | L 2.04 | T 1.74 | D 1.92 | A 1.59 | R 1.5 | P 1.71 | G 2.04 | I 1.38 | V 1.03 | F 1.89 | Q 1.86 | C 1.58 | E 2.66
S24: A 1.73 | P 2.33 | L 1.76 | W 1.74 | T 1.81 | V 1.26 | D 1.89 | R 1.49 | I 1.61 | C 1.71 | N 1.7 | H 1.66 | F 1.41 | Y 1.39 | E 2.21 | G 1.97 | K 2.22 | M 1.62 | Q 1.55
V17: G 1.91 | W 1.86 | A 1.91 | Q 1.97 | F 2.17 | I 1.94 | E 1.59 | C 2.31 | P 1.92 | D 2.13 | T 2.52 | L 2.5 | M 2.38 | Y 2.07 | H 1.97 | R 1.7 | S 1.92 | N 1.83 | K 2.01
G10: T 2.05 | A 1.66 | D 2.51 | Y 1.94 | I 3.84 | Q 2.08 | R 1.6 | N 2.16 | C 3.19 | F 1.5 | M 2.09 | P 2.03 | E 2.31 | S 1.83 | V 1.58 | H 2.56 | L 2.6 | K 1.9 | W 2.79
R13: M 1.26 | F 1.72 | Y 1.7 | D 2.06 | W 1.67 | C 2.29 | E 1.86 | S 2.48 | A 3.09 | G 1.45 | L 2.27 | Q 1.43 | V 1.74 | T 1.28 | N 1.87 | H 1.81 | I 1.93 | P 1.81 | K 1.34
N16: S 2.15 | E 1.73 | D 2.38 | W 2.95 | G 1.1 | A 1.93 | K 2.02 | F 2.22 | L 1.73 | T 1.47 | Y 2.16 | C 1.97 | M 1.83 | R 2.07 | P 2.04 | Q 2.44 | V 2.06 | H 2.21 | I 1.29
S21: R 2.5 | F 1.73 | W 1.24 | P 2.07 | Q 2.29 | N 1.69 | G 1.91 | D 2.04 | H 2.11 | K 2.06 | C 1.49 | I 2.18 | L 2.11 | A 1.83 | T 1.93 | M 1.87 | E 1.92 | V 1.41
S19: W 2.85 | C 1.47 | M 1.88 | H 1.53 | P 1.8 | R 1.92 | Q 2.03 | K 2.23 | Y 1.89 | L 1.47 | N 2.38 | V 2.54 | F 1.47 | E 1.98 | G 1.67 | D 1.89 | A 1.8 | I 1.44 | T 2.06
L15: P 2.02 | Q 2.51 | F 1.77 | E 2.15 | G 1.88 | A 2.35 | R 2.28 | S 1.92 | Y 2.62 | V 2.07 | K 1.99 | N 2.33 | M 2.18 | D 1.61 | I 1.7 | T 1.92 | C 2.35 | W 1.34 | H 1.37
G22: R 2.48 | Y 2.44 | M 1.93 | V 1.33 | S 1.93 | I 1.57 | H 2.75 | P 1.89 | W 2.36 | E 2.83 | A 1.53 | T 1.45 | K 1.73 | F 1.49 | Q 2.09 | L 1.64 | N 2.27 | C 1.69 | D 2.15
A18: Q 1.78 | G 2.1 | C 1.73 | N 2.81 | P 2.2 | V 1.88 | I 1.39 | D 1.62 | W 2.87 | K 2.63 | L 2.27 | M 2.95 | T 1.62 | E 2.11 | S 2.65 | H 2.39 | F 1.9 | R 2.46 | Y 2.94

Variants of: B2
Test: as above
Conditions: c terminus: a fixed tail appended

Protein stability index: each site, then its substitutions
K3: E 3.29 | I 1.89 | M 3.02 | R 3.6 | F 1.61 | A 2.92 | D 3.33 | C 2.78 | N 3.38 | G 3.71 | Q 3.25 | H 3.63 | L 2.14 | P 3.42
E1: V 3.31 | N 3.01 | D 3.03 | P 3.72 | W 2.6 | F 1.95 | L 2.8 | C 3.07 | S 3.2 | I 1.9 | A 3.96 | K 2.97 | Y 2.19 | Q 3.57 | T 2.69 | R 3.03 | H 3.29 | M 2.2 | G 3.09
L2: H 3.74 | W 2.83 | Q 4.5 | S 4.12 | V 3.44 | A 4.42 | P 3.89 | C 4.24 | E 4.97 | F 2.54 | G 3.75 | I 3.17 | D 3.81 | T 3.72 | Y 3.78 | M 3.87 | R 3.67 | N 4.04 | K 3.53
